Consider 2 substances from paper PMC6326545.

For this experiment, the target named is rat TRPV1 ion channel (rat) (UniProt O35433).
UniProt O35433, sequence (O35433 whole entry): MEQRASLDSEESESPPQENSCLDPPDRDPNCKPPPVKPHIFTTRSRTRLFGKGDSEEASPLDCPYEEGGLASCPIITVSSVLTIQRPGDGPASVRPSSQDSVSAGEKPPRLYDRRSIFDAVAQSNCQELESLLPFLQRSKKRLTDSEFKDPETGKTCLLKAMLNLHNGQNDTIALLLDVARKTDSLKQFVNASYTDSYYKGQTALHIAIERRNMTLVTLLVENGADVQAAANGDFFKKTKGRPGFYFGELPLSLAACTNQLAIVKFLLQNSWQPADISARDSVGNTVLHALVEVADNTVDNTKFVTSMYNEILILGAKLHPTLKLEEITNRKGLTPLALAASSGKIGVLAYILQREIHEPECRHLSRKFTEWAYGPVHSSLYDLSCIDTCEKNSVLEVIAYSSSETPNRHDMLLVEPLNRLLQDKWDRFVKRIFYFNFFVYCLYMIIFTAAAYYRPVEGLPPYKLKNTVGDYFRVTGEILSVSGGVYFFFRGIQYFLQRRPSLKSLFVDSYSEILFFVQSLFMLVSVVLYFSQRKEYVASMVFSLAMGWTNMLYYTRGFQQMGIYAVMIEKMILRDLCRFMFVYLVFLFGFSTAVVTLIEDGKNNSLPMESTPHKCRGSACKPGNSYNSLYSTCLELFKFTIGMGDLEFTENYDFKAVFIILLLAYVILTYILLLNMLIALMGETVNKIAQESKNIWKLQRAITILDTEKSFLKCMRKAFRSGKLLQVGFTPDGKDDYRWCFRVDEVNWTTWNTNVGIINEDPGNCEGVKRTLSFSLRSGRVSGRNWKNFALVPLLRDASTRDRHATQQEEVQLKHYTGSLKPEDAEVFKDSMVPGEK

Take DkTx E7A (natural protein): the EC50 of TRPV1 activation (two-electrode voltage clamp, oocytes), fold over wild-type DkTx (fold over wild-type DkTx) amounted to 11.

Regarding DkTx V8A (natural protein), the EC50 of TRPV1 activation (two-electrode voltage clamp, oocytes), fold over wild-type DkTx (fold over wild-type DkTx) was determined as 16.
